Experimental data from patent publication US10344077.

How the values were obtained:
[1] = target: Sm (Smith antigen); assay: AtheNA, Ab 25 ug/ml
[2] = target: Scl-70 (UniProt P11387); assay: AtheNA, Ab 25 ug/ml
[3] = target: Histones; assay: AtheNA, Ab 25 ug/ml
[4] = target: RNP (ribonucleoprotein); assay: AtheNA, Ab 25 ug/ml
[5] = target: T1, Jo-1 (UniProt P12081); assay: AtheNA, Ab 25 ug/ml
T1 sequence (looked up): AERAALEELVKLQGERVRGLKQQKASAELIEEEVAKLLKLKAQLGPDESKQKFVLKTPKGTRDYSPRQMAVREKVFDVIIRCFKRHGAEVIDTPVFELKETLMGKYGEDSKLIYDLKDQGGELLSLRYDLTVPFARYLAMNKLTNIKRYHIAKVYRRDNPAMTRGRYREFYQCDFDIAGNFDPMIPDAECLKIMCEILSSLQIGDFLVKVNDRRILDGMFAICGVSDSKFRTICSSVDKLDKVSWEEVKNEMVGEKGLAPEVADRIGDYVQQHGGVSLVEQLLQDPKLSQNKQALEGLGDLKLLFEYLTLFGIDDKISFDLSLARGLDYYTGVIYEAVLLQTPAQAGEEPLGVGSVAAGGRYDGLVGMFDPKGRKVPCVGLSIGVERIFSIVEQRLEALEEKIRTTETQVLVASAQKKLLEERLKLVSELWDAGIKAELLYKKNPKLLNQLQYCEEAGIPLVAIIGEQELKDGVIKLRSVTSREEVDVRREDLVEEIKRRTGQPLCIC

[6] = target: T2, Centromere B (UniProt P07199); assay: AtheNA, Ab 25 ug/ml
T2 sequence (looked up): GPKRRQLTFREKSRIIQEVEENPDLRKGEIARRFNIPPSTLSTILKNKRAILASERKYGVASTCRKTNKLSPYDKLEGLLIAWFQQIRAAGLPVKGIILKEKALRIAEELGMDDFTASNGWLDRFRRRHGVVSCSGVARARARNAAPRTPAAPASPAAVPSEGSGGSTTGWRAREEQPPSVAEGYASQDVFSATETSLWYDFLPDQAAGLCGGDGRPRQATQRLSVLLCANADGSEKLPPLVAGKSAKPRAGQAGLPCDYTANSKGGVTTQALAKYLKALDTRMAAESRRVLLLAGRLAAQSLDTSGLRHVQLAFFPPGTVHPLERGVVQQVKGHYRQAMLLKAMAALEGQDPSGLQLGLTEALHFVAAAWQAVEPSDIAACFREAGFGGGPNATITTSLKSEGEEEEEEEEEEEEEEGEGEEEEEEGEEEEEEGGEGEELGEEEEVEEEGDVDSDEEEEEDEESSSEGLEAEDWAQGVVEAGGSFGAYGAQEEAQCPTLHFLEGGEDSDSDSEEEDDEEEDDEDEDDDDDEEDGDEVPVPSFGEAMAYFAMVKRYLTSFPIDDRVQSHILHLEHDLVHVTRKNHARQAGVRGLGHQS

[7] = target: SSA; assay: AtheNA, Ab 25 ug/ml
[8] = substrate: T3, SSB (UniProt P05455); assay: AtheNA, Ab 50 ug/ml
T3 sequence (looked up): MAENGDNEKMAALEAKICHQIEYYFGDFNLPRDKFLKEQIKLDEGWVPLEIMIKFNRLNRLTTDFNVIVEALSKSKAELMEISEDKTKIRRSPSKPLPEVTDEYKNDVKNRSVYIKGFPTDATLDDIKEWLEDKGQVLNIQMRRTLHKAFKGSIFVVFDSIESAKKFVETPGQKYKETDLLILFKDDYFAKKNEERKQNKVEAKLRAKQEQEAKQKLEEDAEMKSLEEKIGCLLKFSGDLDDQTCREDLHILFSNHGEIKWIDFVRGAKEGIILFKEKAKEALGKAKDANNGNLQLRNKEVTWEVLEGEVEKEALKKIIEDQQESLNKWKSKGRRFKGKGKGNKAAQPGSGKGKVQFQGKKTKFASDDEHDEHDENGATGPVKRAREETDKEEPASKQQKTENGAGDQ

[9] = target: Sm (Smith antigen); assay: AtheNA, Ab 50 ug/ml
[10] = target: Histones; assay: AtheNA, Ab 50 ug/ml
[11] = target: T1, Jo-1; assay: AtheNA, Ab 50 ug/ml
[12] = target: T2, Centromere B; assay: AtheNA, Ab 50 ug/ml
[13] = target: SSA; assay: AtheNA, Ab 50 ug/ml
[14] = target: Sm (Smith antigen); assay: AtheNA, Ab 6.25 ug/ml
[15] = target: Scl-70 (UniProt P11387); assay: AtheNA, Ab 6.25 ug/ml
[16] = target: Histones; assay: AtheNA, Ab 6.25 ug/ml
[17] = target: RNP (ribonucleoprotein); assay: AtheNA, Ab 6.25 ug/ml
[18] = target: T1, Jo-1; assay: AtheNA, Ab 6.25 ug/ml
[19] = target: T2, Centromere B; assay: AtheNA, Ab 6.25 ug/ml
[20] = target: SSA; assay: AtheNA, Ab 6.25 ug/ml
[21] = target: Sm (Smith antigen); assay: AtheNA, Ab 12.5 ug/ml
[22] = target: Scl-70 (UniProt P11387); assay: AtheNA, Ab 12.5 ug/ml
[23] = target: Histones; assay: AtheNA, Ab 12.5 ug/ml
[24] = target: RNP (ribonucleoprotein); assay: AtheNA, Ab 12.5 ug/ml
[25] = target: T1, Jo-1; assay: AtheNA, Ab 12.5 ug/ml
[26] = target: T2, Centromere B; assay: AtheNA, Ab 12.5 ug/ml
[27] = target: SSA; assay: AtheNA, Ab 12.5 ug/ml
[28] = substrate: T3, ; assay: AtheNA, Ab 25 ug/ml
[29] = substrate: T3, ; assay: AtheNA, Ab 6.25 ug/ml
[30] = substrate: T3, ; assay: AtheNA, Ab 12.5 ug/ml

Sequence of Scl-70 (P11387 2-765 limits assumed): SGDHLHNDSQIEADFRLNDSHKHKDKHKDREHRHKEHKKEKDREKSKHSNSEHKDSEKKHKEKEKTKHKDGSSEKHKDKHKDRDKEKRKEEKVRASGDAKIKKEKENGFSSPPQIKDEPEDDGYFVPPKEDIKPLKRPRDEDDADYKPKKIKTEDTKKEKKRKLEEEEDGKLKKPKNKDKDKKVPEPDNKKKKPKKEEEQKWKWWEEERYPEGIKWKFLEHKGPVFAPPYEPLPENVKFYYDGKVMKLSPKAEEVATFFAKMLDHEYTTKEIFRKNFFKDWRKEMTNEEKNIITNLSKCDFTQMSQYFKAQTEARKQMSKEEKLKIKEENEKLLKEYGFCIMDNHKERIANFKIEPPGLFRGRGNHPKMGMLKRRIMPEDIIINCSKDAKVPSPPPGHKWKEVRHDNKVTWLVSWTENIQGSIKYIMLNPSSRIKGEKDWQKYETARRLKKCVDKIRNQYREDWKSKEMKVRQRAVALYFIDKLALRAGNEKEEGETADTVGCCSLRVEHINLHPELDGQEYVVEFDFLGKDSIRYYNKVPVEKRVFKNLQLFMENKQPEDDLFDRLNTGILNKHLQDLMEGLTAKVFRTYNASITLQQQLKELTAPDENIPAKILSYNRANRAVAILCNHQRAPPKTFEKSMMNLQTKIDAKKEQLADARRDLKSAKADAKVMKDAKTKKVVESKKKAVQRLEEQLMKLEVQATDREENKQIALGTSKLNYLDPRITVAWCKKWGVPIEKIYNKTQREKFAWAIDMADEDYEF

B1: CH236_4A/293i (antibody, from a related filing, V domains shown)
VH: QVQLVQSGAAVKRPGASVTISCRASGYTFTTYYIHWVRQAPGQRLELMGMIDPSRGRTDYAQKFQGRVTMSRDTSTSTLYMELRSLRPDDTALYYCVRNVGTEGSLLHYDYWGQGTLVTVSS
VL: EIVLTQSPATLSVSPGERVTLSCRASQSVRNNLAWYRQKRGQAPRLLIYGASTRATGIPARFSGSGSGTEFTLTISSMQSEDFAVYYCQQYNNWWTFGQGTKVEIK
[1]
  Athena reading (relative luminescence units): 165
[2]
  Athena reading (relative luminescence units): 62
[3]
  Athena reading (relative luminescence units): 193
[4]
  Athena reading (relative luminescence units): 69
[5]
  Athena reading (relative luminescence units): 72
[6]
  Athena reading (relative luminescence units): 129
[7]
  Athena reading (relative luminescence units): 224
[8]
  Athena reading (relative luminescence units): 207
[9]
  Athena reading (relative luminescence units): 128
[10]
  Athena reading (relative luminescence units): 138
[11]
  Athena reading (relative luminescence units): 145
[12]
  Athena reading (relative luminescence units): 84
[13]
  Athena reading (relative luminescence units): 177
[14]
  Athena reading (relative luminescence units): 184
[15]
  Athena reading (relative luminescence units): 31
[16]
  Athena reading (relative luminescence units): 154
[17]
  Athena reading (relative luminescence units): 40
[18]
  Athena reading (relative luminescence units): 7
[19]
  Athena reading (relative luminescence units): 208
[20]
  Athena reading (relative luminescence units): 44
[21]
  Athena reading (relative luminescence units): 258
[22]
  Athena reading (relative luminescence units): 50
[23]
  Athena reading (relative luminescence units): 234
[24]
  Athena reading (relative luminescence units): 78
[25]
  Athena reading (relative luminescence units): 19
[26]
  Athena reading (relative luminescence units): 233
[27]
  Athena reading (relative luminescence units): 185
[28]
  Athena reading (relative luminescence units): 175
[29]
  Athena reading (relative luminescence units): 15
[30]
  Athena reading (relative luminescence units): 63
